Target: the molecule itself
Assay: SEC; gel filtration of purified recombinant rRII-3; column and buffer not told in the text shown (Figure S3)

B1: recombinant RII-3 of P. falciparum reticulocyte binding protein homologue 1 (PfRH1), amino acids 500 to 833 (domain or fragment)
chain: LQIVQQKLLEIKQKKNDITHKVQLINHIYKNIHDEILNKKNNEITKIIINNIKDHKKDLQDLLLFIQQIKQYNILTDHKITQCNNYYKEIIKMKEDINHIHIYIQPILNNLHTLKQVQNNKIKYEEHIKQILQKIYDKKESLKKIILLKDEAQLDITLLDDLIQKQTKKQTQTQTQTQKQTLIQNNETIQLISGQEDKHESNPFNHIQTYIQQKDTQNKNIQNLLKSLYNGNINTFIDTISKYILKQKDIELTQHVYTDEKINDYLEEIKNEQNKIDKTIDDIKIQETLKQITHIVNNIKTIKKDLLKEFIQHLIKYMNERYQNMQQGYNNLTN
notes: region II amino acids 500 to 833 (334 residues); Cloned EcoRI/XhoI into pET24a(+); no cleavage of the tag is described; Primers are in Protocol S1; also called rRII-3; source: E. coli BL21-CodonPlus-RIL, purified (Ni-NTA, MonoS ion exchange); not shown: His6, C-terminal, kept
stoichiometry N: 3

Source: PMC2438614, “Antibodies Targeting the PfRH1 Binding Domain Inhibit Invasion of Plasmodium falciparum Merozoites” (PLoS Pathogens, 2008)
